Assay results as given in patent publication US20210388087A1 (Chugai, published 2021).
Positions count from the first letter of the chain named.

B1: CE115HA000 S52cY (antibody, human IgG1, kappa, L234A L235A, N297A, name in Kabat numbering)
heavy: QVQLVESGGGVVQPGRSLRLSCAASGFTFSNAWMHWVRQAPGKGLEWVAQIKAKYNNYATYYAESVKGRFTISRDDSKNSLYLQMNSLKTEDTAVYYCRYVHYGAYYGVDAWGQGTTVTVSSASTKGPSVFPLAPSSKSTSGGTAALGCLVKDYFPEPVTVSWNSGALTSGVHTFPAVLQSSGLYSLSSVVTVPSSSLGTQTYICNVNHKPSNTKVDKKVEPKSCDKTHTCPPCPAPEAAGGPSVFLFPPKPKDTLMISRTPEVTCVVVDVSHEDPEVKFNWYVDGVEVHNAKTKPREEQYASTYRVVSVLTVLHQDWLNGKEYKCKVSNKALPAPIEKTISKAKGQPREPQVYTLPPSRCELTKNQVSLSCAVKGFYPSDIAVEWESNGQPENNYKTTPPVLDSDGSFFLVSKLTVDKSRWQQGNVFSCSVMHEALHNHYTQKSLSLSPDYKDDDDK
chain: EPKSSDKTHTCPPCPAPELLGGPSVFLFPPKPKDTLMISRTPEVTCVVVDVSHEDPEVKFNWYVDGVEVHNAKTKPREEQYNSTYRVVSVLTVLHQDWLNGKEYKCKVSNKALPAPIEKTISKAKGQPREPQVCTLPPSRDELTKNQVSLWCLVKGFYPSDIAVEWESNGQPENNYKTTPPVLDSDGSFFLYSKLTVDKSRWQQGNVFSCSVMHEALHNRYTQKSLSLSP
light: DIVMTQSPLSLPVTPGEPASISCRSSQSLVHSNRNTYLHWYQQKPGQAPRLLIYKVSNRFSGVPDRFSGSGSGTDFTLKISRVEAEDVGVYYCGQGTQVPYTFGQGTKLEIKRTVAAPSVFIFPPSDEQLKSGTASVVCLLNNFYPREAKVQWKVDNALQSGNSQESVTEQDSKDSTYSLSSTLTLSKADYEKHKVYACEVTHQGLSSPVTKSFNRGEC
notes: one-arm antibody
B2: CE115HA000 W33H (antibody, human IgG1, kappa, L234A L235A, N297A, name in Kabat numbering)
heavy: B1 heavy with W33H, Y55S
chain: B1 chain
light: B1 light
notes: one-arm antibody
B3: CE115HA000 T28S (antibody, human IgG1, kappa, L234A L235A, N297A, name in Kabat numbering)
heavy: B1 heavy with T28S, Y55S
chain: B1 chain
light: B1 light
notes: one-arm antibody
B4: CE115HA000 Y55S (antibody, human IgG1, kappa, L234A L235A, N297A, name in Kabat numbering)
heavy: B1 heavy with Y55S, Y58S
chain: B1 chain
light: B1 light
notes: one-arm antibody
B5: CE115HA000 S77T (antibody, human IgG1, kappa, L234A L235A, N297A, name in Kabat numbering)
heavy: B1 heavy with Y55S, S80T
chain: B1 chain
light: B1 light
notes: one-arm antibody
B6: CE115HA000 S62K (antibody, human IgG1, kappa, L234A L235A, N297A, name in Kabat numbering)
heavy: B1 heavy with Y55S, S65K
chain: B1 chain
light: B1 light
notes: one-arm antibody
B7: CE115HA000 T57K (antibody, human IgG1, kappa, L234A L235A, N297A, name in Kabat numbering)
heavy: B1 heavy with Y55S, T60K
chain: B1 chain
light: B1 light
notes: one-arm antibody
B8: CE115HA000 V95E (antibody, human IgG1, kappa, L234A L235A, N297A, name in Kabat numbering)
heavy: B1 heavy with Y55S, V101E
chain: B1 chain
light: B1 light
notes: one-arm antibody
B9: CE115HA000 T57N (antibody, human IgG1, kappa, L234A L235A, N297A, name in Kabat numbering)
heavy: B1 heavy with Y55S, T60N
chain: B1 chain
light: B1 light
notes: one-arm antibody
B10: CE115HA000 Y55G (antibody, human IgG1, kappa, L234A L235A, N297A, name in Kabat numbering)
heavy: B1 heavy with Y55S, Y58G
chain: B1 chain
light: B1 light
notes: one-arm antibody
B11: CE115HA000 W33A (antibody, human IgG1, kappa, L234A L235A, N297A, name in Kabat numbering)
heavy: B1 heavy with W33A, Y55S
chain: B1 chain
light: B1 light
notes: one-arm antibody
B12: CE115HA000 V95S (antibody, human IgG1, kappa, L234A L235A, N297A, name in Kabat numbering)
heavy: B1 heavy with Y55S, V101S
chain: B1 chain
light: B1 light
notes: one-arm antibody
B13: CE115HA000 S62P (antibody, human IgG1, kappa, L234A L235A, N297A, name in Kabat numbering)
heavy: B1 heavy with Y55S, S65P
chain: B1 chain
light: B1 light
notes: one-arm antibody
B14: CE115HA000 V95K (antibody, human IgG1, kappa, L234A L235A, N297A, name in Kabat numbering)
heavy: B1 heavy with Y55S, V101K
chain: B1 chain
light: B1 light
notes: one-arm antibody
B15: CE115HA000 S74A (antibody, human IgG1, kappa, L234A L235A, N297A, name in Kabat numbering)
heavy: B1 heavy with Y55S, S77A
chain: B1 chain
light: B1 light
notes: one-arm antibody
B16: CE115HA000 T28D (antibody, human IgG1, kappa, L234A L235A, N297A, name in Kabat numbering)
heavy: B1 heavy with T28D, Y55S
chain: B1 chain
light: B1 light
notes: one-arm antibody
B17: CE115HA000 V100cD (antibody, human IgG1, kappa, L234A L235A, N297A, name in Kabat numbering)
heavy: B1 heavy with Y55S, V109D
chain: B1 chain
light: B1 light
notes: one-arm antibody
B18: CE115HA000 V100cP (antibody, human IgG1, kappa, L234A L235A, N297A, name in Kabat numbering)
heavy: B1 heavy with Y55S, V109P
chain: B1 chain
light: B1 light
notes: one-arm antibody
B19: CE115HA000 V11L (antibody, human IgG1, kappa, L234A L235A, N297A, name in Kabat numbering)
heavy: B1 heavy with V11L, Y55S
chain: B1 chain
light: B1 light
notes: one-arm antibody
B20: CE115HA000 W33F (antibody, human IgG1, kappa, L234A L235A, N297A, name in Kabat numbering)
heavy: B1 heavy with W33F, Y55S
chain: B1 chain
light: B1 light
notes: one-arm antibody
B21: CE115HA000 W33D (antibody, human IgG1, kappa, L234A L235A, N297A, name in Kabat numbering)
heavy: B1 heavy with W33D, Y55S
chain: B1 chain
light: B1 light
notes: one-arm antibody
B22: CE115HA000 V95D (antibody, human IgG1, kappa, L234A L235A, N297A, name in Kabat numbering)
heavy: B1 heavy with Y55S, V101D
chain: B1 chain
light: B1 light
notes: one-arm antibody
B23: CE115HA000 S74P (antibody, human IgG1, kappa, L234A L235A, N297A, name in Kabat numbering)
heavy: B1 heavy with Y55S, S77P
chain: B1 chain
light: B1 light
notes: one-arm antibody
B24: CE115HA000 V95A (antibody, human IgG1, kappa, L234A L235A, N297A, name in Kabat numbering)
heavy: B1 heavy with Y55S, V101A
chain: B1 chain
light: B1 light
notes: one-arm antibody
B25: CE115HA000 T57I (antibody, human IgG1, kappa, L234A L235A, N297A, name in Kabat numbering)
heavy: B1 heavy with Y55S, T60I
chain: B1 chain
light: B1 light
notes: one-arm antibody
B26: CE115HA000 V95G (antibody, human IgG1, kappa, L234A L235A, N297A, name in Kabat numbering)
heavy: B1 heavy with Y55S, V101G
chain: B1 chain
light: B1 light
notes: one-arm antibody
B27: CE115HA000 Y55D (antibody, human IgG1, kappa, L234A L235A, N297A, name in Kabat numbering)
heavy: B1 heavy with Y55S, Y58D
chain: B1 chain
light: B1 light
notes: one-arm antibody
B28: CE115HA000 T57A (antibody, human IgG1, kappa, L234A L235A, N297A, name in Kabat numbering)
heavy: B1 heavy with Y55S, T60A
chain: B1 chain
light: B1 light
notes: one-arm antibody
B29: CE115HA000 W33Y (antibody, human IgG1, kappa, L234A L235A, N297A, name in Kabat numbering)
heavy: B1 heavy with W33Y, Y55S
chain: B1 chain
light: B1 light
notes: one-arm antibody
B30: CE115HA000 S62D (antibody, human IgG1, kappa, L234A L235A, N297A, name in Kabat numbering)
heavy: B1 heavy with Y55S, S65D
chain: B1 chain
light: B1 light
notes: one-arm antibody
B31: CE115HA000 S62E (antibody, human IgG1, kappa, L234A L235A, N297A, name in Kabat numbering)
heavy: B1 heavy with Y55S, S65E
chain: B1 chain
light: B1 light
notes: one-arm antibody
B32: CE115HA000 V100cE (antibody, human IgG1, kappa, L234A L235A, N297A, name in Kabat numbering)
heavy: B1 heavy with Y55S, V109E
chain: B1 chain
light: B1 light
notes: one-arm antibody

Molecular target: T1, CD3 epsilon homodimer protein (UniProt P07766 23-126)
T1 construct: also called CD3 (CD3 epsilon)
T1 sequence (P07766 23-126): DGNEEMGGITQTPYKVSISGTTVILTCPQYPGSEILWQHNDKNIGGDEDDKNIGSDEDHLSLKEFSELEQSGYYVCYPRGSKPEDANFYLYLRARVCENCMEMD
Assay: SPR, CD3 epsilon homodimer on chip, one-arm antibody as analyte;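 further: surface plasmon resonance at 25 °C with CD3 epsilon homodimer amine-coupled to a CM4 sensor chip, antibody injected as analyte, HBS-EP+ as running buffer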

First: B1
Second: B2
The “KD ratio (KD of CE115HA000/KD of altered form)” value (“KD ratio” below) of the first is lower: 0.87 for the first, 4.96 for the second.

First: B3
Second: B4
The “KD ratio” value of the first is lower: 0.79 for the first, 5.65 for the second.

Going from B5 to B6, the “KD ratio” value rises from 0.83 to 0.99.

First: B7
Second: B8
The “KD ratio” value of the first is lower: 1.22 for the first, 50.5 for the second.

First: B9
Second: B10
The “KD ratio” value of the first is lower: 0.9 for the first, 0.99 for the second.

Compared with B11, B12 is lower in “KD ratio” value: 30 for the first, 4.61 for the second.

First: B13
Second: B14
The “KD ratio” value of the first is lower: 0.77 for the first, 1.15 for the second.

First: B15
Second: B16
The “KD ratio” value of the first is lower: 0.77 for the first, 0.93 for the second.

Compared with B17, B18 is lower in “KD ratio” value: 1.64 for the first, 0.97 for the second.

Compared with B19, B20 is lower in “KD ratio” value: 0.83 for the first, 0.66 for the second.

Going from B21 to B22, the “KD ratio” value falls from 1690 to 108.

Going from B23 to B24, the “KD ratio” value rises from 0.7 to 3.15.

Going from B25 to B26, the “KD ratio” value rises from 0.81 to 78300.

Going from B27 to B28, the “KD ratio” value falls from 0.89 to 0.87.

Compared with B29, B30 is higher in “KD ratio” value: 0.69 for the first, 0.87 for the second.

Compared with B31, B32 is higher in “KD ratio” value: 0.82 for the first, 1.31 for the second.
